Positions count from the first letter of the chain named.
B1: LY93I (scFv)
scFv: QSALTQPRSVSGSPGQSVTISCAGTSSDVGSENYVSWYQQHPGKAPKLMIYQVNKRASGVPDRFSGSKSGNTASLTISGLQAEDEADYYCASIRSSDHNIVFGGGTKLTVLGGGGSGGGGSGGGGSEVQLVESGGGLVQPGGSLRLSCAASGFTFSSYAMSWVRQAPGKGLEWVSTINSGTGSPYYADSVKGRFTISRDNSKNTLYLQMNSLRAEDTAVYYCAKNFFDGSWFLGPPAMDYWGQGTLVTVSSHHHHHH
notes: AS170036 VL1VH1 scFv mutein
B2: LY93Q (scFv)
scFv: B1 scFv with I93Q
notes: AS170036 VL1VH1 scFv mutein
B3: LY93F (scFv)
scFv: B1 scFv with I93F
notes: AS170036 VL1VH1 scFv mutein
B4: LY93V (scFv)
scFv: B1 scFv with I93V
notes: AS170036 VL1VH1 scFv mutein
B5: LY93W (scFv)
scFv: B1 scFv with I93W
notes: AS170036 VL1VH1 scFv mutein
B6: LY93M (scFv)
scFv: B1 scFv with I93M
notes: AS170036 VL1VH1 scFv mutein
B7: LY34W (scFv)
scFv: B1 scFv with Y34W, I93Y
notes: AS170036 VL1VH1 scFv mutein
B8: LY93L (scFv)
scFv: B1 scFv with I93L
notes: AS170036 VL1VH1 scFv mutein
B9: AS170036 VL1VH1-VHG56F (scFv)
scFv: B1 scFv with I93Y, G182F
B10: AS170036 VL1VH1-VHG108D (scFv)
scFv: B1 scFv with I93Y, G234D
B11: AS170036 VL1VH1-VHG56Y (scFv)
scFv: B1 scFv with I93Y, G182Y
B12: AS170036 VL1VH1-VHG56N (scFv)
scFv: B1 scFv with I93Y, G182N
B13: AS170036 VL1VH1-VHG108M (scFv)
scFv: B1 scFv with I93Y, G234M
B14: AS170036 VL1VH1-VHG108E (scFv)
scFv: B1 scFv with I93Y, G234E
B15: AS170036 VL1VH1-VHG108A (scFv)
scFv: B1 scFv with I93Y, G234A

The binders below were run against T1, AFP158/HLA-A*02:01 complex (human) (assay: SPR, scFv captured, pMHC in flow;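 also: complex injected at several concentrations over crude scFv, association then running-buffer dissociation, KD estimated from kinetic on- and off-rate constants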).
T1 construct: flowed over the chip in SPR; also called AFP158 pro
Method: (§1) The experiment was carried out as follows. The crude scFv protein were captured onto the sensorchip. Different concentrations (320, 160, 40 nM) of AFP158/HLA-A*02:01 complex flowed over the sensorchip surface, and were allowed to bind the antibody fragment for 100 s followed by injection of the running buffer to allow dissociation of the complex. On-rate (kd) and off-rate (kd) were calculated based on association and dissociation curve, and were used to estimate the equilibrium dissociation constant (KD).

Binder | Kd [nM]
B1 | 440
B2 | 380
B3 | 140
B4 | 450
B5 | 240
B6 | 230
B7 | 410
B8 | 180

Biological target: T1, AFP158/HLA-A*02:01 complex
Assay: SPR, scFv captured, pMHC in flow
Remark: another data set of the same source
Method: as §1

Binder | Kd [nM]
B1 | 440
B2 | 380
B3 | 140
B4 | 450
B5 | 240
B6 | 230
B7 | 410
B8 | 180

Each binder was assayed against T1, AFP158/HLA-A*02:01 complex (assay: SPR, KD ratio to AS170036 VL1VH1;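 also: crude scFv captured on a sensor chip, peptide–HLA complex passed over at several concentrations, association then buffer dissociation, KD derived from on- and off-rates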).
Method: as §1

Binder | Affinity increase [fold]
B1 | 0.6
B2 | 0.6
B3 | 1.8
B4 | 0.5
B5 | 1
B6 | 1.1
B7 | 0.6
B8 | 1.3

Each binder was assayed against T2, AFP158/HLA-A*02:01 complex (human) (assay: SPR, fold vs AS170036 VL1VH1).
T2 construct: flowed as analyte in SPR
Method: as §1

Binder | Affinity increase [fold]
B9 | 2.3
B10 | 5.5
B11 | 6.6
B12 | 2.5
B13 | 4.7
B14 | 4.1
B15 | 5.5

Biological target: T1, AFP158/HLA-A*02:01 complex
Assay: SPR, KD ratio to AS170036 VL1VH1
Remark: another data set of the same source
Method: as §1

Binder | Affinity increase [fold]
B1 | 0.6
B2 | 0.6
B3 | 1.8
B4 | 0.5
B5 | 1
B6 | 1.1
B7 | 0.6
B8 | 1.3

What follows are binders tested against T2, AFP158/HLA-A*02:01 complex (assay: SPR, crude scFv captured, pMHC analyte;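 also: Peptide-MHC complex at several concentrations passed over captured scFv, association then buffer-driven dissociation, on- and off-rates fitted from the curves and KD estimated from them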).
Method: as §1

Binder | Kd [nM] | koff [s⁻¹] | kon [M⁻¹ s⁻¹]
B9 | 98 | 0.022 | 230000
B10 | 42 | 0.015 | 370000
B11 | 35 | 0.006 | 170000
B12 | 92 | 0.025 | 270000
B13 | 58 | 0.013 | 220000
B14 | 56 | 0.02 | 350000
B15 | 42 | 0.012 | 290000

Reference: patent US20240279318A1 (NANJING LEGEND BIOTECH, published 2024)
